Experimental data reported in PMC5886171.

Assays:
[1] = target: Full-length plasma gelsolin Gly167Arg (human) (UniProt P06396); experiment: SEC-MALS; 200 µl of 4 mg/ml Gly167Arg GSN separated by gel filtration without calcium, on-line MALS, dn/dc 0.185
[2] = target: Gelsolin G2 domain (amino acids 151–266) carrying the Gly167Arg mutation (human) (UniProt P06396); experiment: dynamic light scattering; 1 mg/ml monomer in 20 mM HEPES pH 7.4, 0.3 M NaCl, 1 mM EDTA, incubated at 4 °C; hydrodynamic radius against time, measured at 4 °C; monomer to dimer, pseudo-first-order fit
[3] = target: Gelsolin G2 domain (amino acids 151–266) carrying the Gly167Arg mutation (human) (UniProt P06396); experiment: dynamic light scattering; 1 mg/ml monomer in 20 mM HEPES pH 7.4, 0.3 M NaCl, 1 mM CaCl2, incubated at 25 °C; hydrodynamic radius against time, measured at 4 °C; monomer to dimer, pseudo-first-order fit
[4] = target: Gelsolin G2 domain (amino acids 151–266) carrying the Gly167Arg mutation (human) (UniProt P06396); experiment: SEC; analytical gel filtration, Superdex 75 Increase 10/300 GL; 0.5 mg/ml isolated dimer or monomer incubated in 20 mM HEPES pH 7.4, 0.3 M NaCl with 1 mM CaCl2 at 4 °C, 1 mM CaCl2 at 25 °C or 1 mM EDTA at 4 °C; time course

Substance	stoichiometry N [1]	pseudo-first-order rate constant k of the conversion of monomers to dimers [2] [h⁻¹]	pseudo-first-order rate constant k of the conversion of monomers to dimers [3] [h⁻¹]	fraction of dimers at equilibrium [4] [%]
Full-length plasma gelsolin Gly167Arg (from UniProt P06396 26-782) (natural protein)	2			
Gelsolin G2 domain (amino acids 151–266) carrying the Gly167Arg mutation (from UniProt P06396 178-293) (domain or fragment)		2.1	0.6	50
